Test results: patent US20050106145A1

Key:
human tenascin-C (human) [1] = biological target: human tenascin-C (human) (UniProt P24821); assay: BIAcore
human tenascin-C (human) [2] = biological target: human tenascin-C (human) (UniProt P24821); assay: ELISA, tenascin 5 µg/ml

Sequence of human tenascin-C (human) (P24821 23-2201 limits assumed): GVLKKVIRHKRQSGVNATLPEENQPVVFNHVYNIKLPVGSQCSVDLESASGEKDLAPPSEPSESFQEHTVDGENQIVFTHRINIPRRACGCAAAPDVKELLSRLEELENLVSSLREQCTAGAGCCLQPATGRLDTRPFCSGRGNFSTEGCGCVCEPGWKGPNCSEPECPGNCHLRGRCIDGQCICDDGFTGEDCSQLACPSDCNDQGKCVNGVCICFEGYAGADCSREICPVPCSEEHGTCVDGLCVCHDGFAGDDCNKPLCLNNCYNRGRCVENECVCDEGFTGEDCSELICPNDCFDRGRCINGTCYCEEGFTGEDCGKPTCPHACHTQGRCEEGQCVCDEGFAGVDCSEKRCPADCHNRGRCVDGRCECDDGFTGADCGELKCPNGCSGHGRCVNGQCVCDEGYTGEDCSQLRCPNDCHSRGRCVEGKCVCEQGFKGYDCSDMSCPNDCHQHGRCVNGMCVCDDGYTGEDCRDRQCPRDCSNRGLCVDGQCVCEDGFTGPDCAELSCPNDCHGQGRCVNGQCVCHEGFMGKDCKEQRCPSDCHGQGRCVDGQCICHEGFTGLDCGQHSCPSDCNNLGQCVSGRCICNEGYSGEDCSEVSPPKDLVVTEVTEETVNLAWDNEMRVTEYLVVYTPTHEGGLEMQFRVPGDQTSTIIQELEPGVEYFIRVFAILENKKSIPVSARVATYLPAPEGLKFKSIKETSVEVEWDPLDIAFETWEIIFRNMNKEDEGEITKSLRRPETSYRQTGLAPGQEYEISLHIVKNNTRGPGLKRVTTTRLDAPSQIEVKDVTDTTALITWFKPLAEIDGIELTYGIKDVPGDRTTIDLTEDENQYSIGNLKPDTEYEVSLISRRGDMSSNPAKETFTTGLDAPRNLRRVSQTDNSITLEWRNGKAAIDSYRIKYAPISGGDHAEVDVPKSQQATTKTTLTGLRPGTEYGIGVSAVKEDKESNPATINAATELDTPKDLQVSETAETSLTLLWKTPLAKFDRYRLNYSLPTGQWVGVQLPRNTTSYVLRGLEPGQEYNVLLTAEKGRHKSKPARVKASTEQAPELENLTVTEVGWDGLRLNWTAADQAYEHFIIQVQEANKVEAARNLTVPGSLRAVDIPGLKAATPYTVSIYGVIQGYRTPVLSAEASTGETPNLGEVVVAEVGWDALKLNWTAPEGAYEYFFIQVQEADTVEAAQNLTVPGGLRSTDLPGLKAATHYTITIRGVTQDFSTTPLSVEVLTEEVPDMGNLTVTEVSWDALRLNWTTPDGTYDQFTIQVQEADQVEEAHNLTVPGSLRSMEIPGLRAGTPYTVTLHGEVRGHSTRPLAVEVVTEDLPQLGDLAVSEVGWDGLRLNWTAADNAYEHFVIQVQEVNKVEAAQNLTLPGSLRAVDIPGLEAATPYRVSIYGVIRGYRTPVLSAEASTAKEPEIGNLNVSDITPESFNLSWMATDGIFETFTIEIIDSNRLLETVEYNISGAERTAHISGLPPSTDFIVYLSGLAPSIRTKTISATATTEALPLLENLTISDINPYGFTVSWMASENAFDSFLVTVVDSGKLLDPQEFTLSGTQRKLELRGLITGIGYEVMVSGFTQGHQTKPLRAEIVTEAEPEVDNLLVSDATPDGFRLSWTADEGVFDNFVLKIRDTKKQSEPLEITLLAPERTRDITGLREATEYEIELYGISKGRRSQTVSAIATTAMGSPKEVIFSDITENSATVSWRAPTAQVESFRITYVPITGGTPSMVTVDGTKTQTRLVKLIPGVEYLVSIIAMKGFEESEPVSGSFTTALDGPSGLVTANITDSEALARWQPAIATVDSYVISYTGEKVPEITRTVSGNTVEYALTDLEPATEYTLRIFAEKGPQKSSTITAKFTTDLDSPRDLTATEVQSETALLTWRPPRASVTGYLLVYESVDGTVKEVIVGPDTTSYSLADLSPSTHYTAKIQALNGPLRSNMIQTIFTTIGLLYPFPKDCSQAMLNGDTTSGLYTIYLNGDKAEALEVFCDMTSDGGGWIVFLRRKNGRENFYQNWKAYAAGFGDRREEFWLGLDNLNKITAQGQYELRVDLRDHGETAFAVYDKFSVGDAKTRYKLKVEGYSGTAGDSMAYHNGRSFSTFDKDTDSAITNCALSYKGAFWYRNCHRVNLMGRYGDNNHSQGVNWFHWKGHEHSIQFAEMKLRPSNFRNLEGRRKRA

Kd (human tenascin-C (human) [1]): 4.9 nM
EC50 (read off the curve) (human tenascin-C (human) [2]): 0.2 µg/mL
Substance: BC4 anti-tenascin monoclonal antibody
